# Values of other authors, collected in paper PMC2921030.
# Target: 4E-BP1 peptide (Homo sapiens) (UniProt Q13541)
# UniProt Q13541, sequence (Q13541 2-118): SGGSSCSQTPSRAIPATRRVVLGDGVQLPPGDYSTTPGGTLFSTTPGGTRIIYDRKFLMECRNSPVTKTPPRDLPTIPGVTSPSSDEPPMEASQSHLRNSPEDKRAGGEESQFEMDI
substance,measurement,value
eIF4E (from UniProt P06730),Kd,< 50 nM
